Assays:
[1] = target: T1, human PD-L1 coupled to human Fc (human, UniProt Q9NZQ7 19-239, limits assumed); assay: SPR (Proteon XPR36), human PD-L1-Fc immobilised, crude H12 Fab extract flowed
T1 construct: also called human PD-L1-Fc; not shown: human Fc

[2] = target: T2, murine PD-L1 coupled to human Fc (murine, UniProt Q9EP73 19-238, limits assumed); assay: SPR (Proteon XPR36), mouse PD-L1-Fc immobilised, crude H12 Fab extract flowed
T2 construct: also called murine PD-L1-Fc; mouse PD-L1 coupled to Fc; not shown: human Fc

[3] = target: T1, human PD-L1 coupled to human Fc; assay: SPR, Proteon XPR36, human PD-L1-Fc immobilised, crude H12 Fab extract flown over
[4] = target: T2, murine PD-L1 coupled to human Fc; assay: SPR, Proteon XPR36, murine PD-L1-Fc immobilised, crude H12 Fab extract flown over
[5] = target: biotinylated human PD-L1 (human, UniProt Q9NZQ7 19-238, limits assumed, biotinylated (site not stated)); assay: blocking ELISA: biotinylated human PD-L1 pre-incubated with Fab, then added to coated human PD-1-Fc (blocked partner), streptavidin-HRP
[6] = target: biotinylated murine PD-L1 (murine, UniProt Q9EP73 19-238, limits assumed, biotinylated (site not stated)); assay: blocking ELISA: biotinylated murine PD-L1 pre-incubated with Fab, then added to coated murine PD-1-Fc (blocked partner), streptavidin-HRP
Chain of biotinylated murine PD-L1 (Q9EP73 19-238 limits assumed): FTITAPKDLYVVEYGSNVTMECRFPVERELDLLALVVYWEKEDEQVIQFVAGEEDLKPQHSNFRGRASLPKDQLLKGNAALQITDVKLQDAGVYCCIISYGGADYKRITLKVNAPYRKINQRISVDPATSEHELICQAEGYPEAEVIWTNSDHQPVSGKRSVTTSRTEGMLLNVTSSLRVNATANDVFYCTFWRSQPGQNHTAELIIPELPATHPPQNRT

T2 sequence (Q9EP73 19-238 limits assumed): as above
T1 sequence (Q9NZQ7 19-239 limits assumed): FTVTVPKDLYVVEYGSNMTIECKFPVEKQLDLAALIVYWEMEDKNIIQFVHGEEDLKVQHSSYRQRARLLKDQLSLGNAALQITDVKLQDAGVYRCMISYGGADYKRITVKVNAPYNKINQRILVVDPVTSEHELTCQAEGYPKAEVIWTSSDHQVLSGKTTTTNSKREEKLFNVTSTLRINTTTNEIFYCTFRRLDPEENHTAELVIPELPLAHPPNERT
Chain of biotinylated human PD-L1 (Q9NZQ7 19-238 limits assumed): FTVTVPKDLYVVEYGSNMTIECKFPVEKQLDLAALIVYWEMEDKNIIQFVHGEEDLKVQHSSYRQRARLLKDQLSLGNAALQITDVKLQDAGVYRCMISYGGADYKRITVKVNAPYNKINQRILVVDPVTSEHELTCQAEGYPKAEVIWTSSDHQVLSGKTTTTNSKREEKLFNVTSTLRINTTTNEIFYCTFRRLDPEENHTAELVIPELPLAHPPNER

Kd [1]: 0.313 nM | Kd [2]: 3.04 nM | koff [3]: 0.000471 s⁻¹ | kon [3]: 1.5e+06 M⁻¹ s⁻¹ | koff [4]: 0.00407 s⁻¹ | kon [4]: 1.34e+06 M⁻¹ s⁻¹ | IC50 (read off the curve) [5]: ~20 nM | IC50 (read off the curve) [6]: ~4 nM
B1: anti-PD-L1 antibody clone H12, Fab format (Fab, V domains shown)
VH: EVQLVQSGAEVKKPGASVKVSCKASGGTFSSYAISWVRQAPGQGLEWMGRIIPILGIANYAQKFQGRVTITADKSTSTAYMELSSLRSEDTAVYYCARSGHGYSYGAFDYWGQGTL
VL: QSVLTQPPSVSGAPGQRVTISCTGSSSNIGAGYDVHWYQQLPGTAPKLLIYGNSNRPSGVPDRFSGSKSGTSASLAITGLQAEDEADYYCQSYDSSLSGSYVVFGGGTKLTVL
notes: Tested as Fab; the SPR used a crude Fab extract; also called crude H12 Fab extract

From patent US20200093922A1 (AGENCY FOR SCIENCE TECHNOLOGY AND RESEARCH, published 2020)
